Assay results from IntAct's records for PubMed 19934257.

B1: NAD-dependent protein deacetylase sirtuin-1 (Homo sapiens), Q96EB6 (parent)
chain: MADEAALALQPGGSPSAAGADREAASSPAGEPLRKRPRRDGPGLERSPGEPGGAAPEREVPAAARGCPGAAAAALWREAEAEAAAAGGEQEAQATAAAGEGDNGPGLQGPSREPPLADNLYDEDDDDEGEEEEEAAAAAIGYRDNLLFGDEIITNGFHSCESDEEDRASHASSSDWTPRPRIGPYTFVQQHLMIGTDPRTILKDLLPETIPPPELDDMTLWQIVINILSEPPKRKKRKDINTIEDAVKLLQECKKIIVLTGAGVSVSCGIPDFRSRDGIYARLAVDFPDLPDPQAMFDIEYFRKDPRPFFKFAKEIYPGQFQPSLCHKFIALSDKEGKLLRNYTQNIDTLEQVAGIQRIIQCHGSFATASCLICKYKVDCEAVRGDIFNQVVPRCPRCPADEPLAIMKPEIVFFGENLPEQFHRAMKYDKDEVDLLIVIGSSLKVRPVALIPSSIPHEVPQILINREPLPHLHFDVELLGDCDVIINELCHRLGGEYAKLCCNPVKLSEITEKPPRTQKELAYLSELPPTPLHVSEDSSSPERTSPPDSSVIVTLLDQAAKSNDDLDVSESKGCMEEKPQEVQTSRNVESIAEQMENPDLKNVGSSTGEKNERTSVAGTVRKCWPNRVAKEQISRRLDGNQYLFLPPNRYIFHGAEVYSDSEDDVLSSSSCGSNSDSGTCQSPSLEEPMEDESEIEEFYNGLEDEPDVPERAGGAGFGTDGDDQEAINEAISVKQEVTDMNYPSNKS

Variants of: B1
Details: with apex1_human APEX1, P27695
Sequence of apex1_human APEX1, P27695 (P27695 whole entry): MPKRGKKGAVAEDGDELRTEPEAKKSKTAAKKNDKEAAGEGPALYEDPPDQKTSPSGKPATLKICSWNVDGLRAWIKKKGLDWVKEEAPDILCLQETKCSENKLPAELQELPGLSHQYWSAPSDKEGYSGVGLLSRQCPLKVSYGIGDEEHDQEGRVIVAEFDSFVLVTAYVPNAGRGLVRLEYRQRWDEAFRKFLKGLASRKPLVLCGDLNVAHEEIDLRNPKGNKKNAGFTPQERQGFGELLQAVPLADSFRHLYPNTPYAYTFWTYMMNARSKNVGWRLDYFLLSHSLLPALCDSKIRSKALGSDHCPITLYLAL

| Variant | effect of a mutation on the interaction |
| --- | --- |
| H363Y | disrupting interaction |
